Assay results published in patent publication US20200002439A1 (GENSUN BIOPHARMA, published 2020).
Values belong to the binder of their own block, whether it stands above or below them.

Columns and labels:
[1] = biological target: T1, human PD-1 on transfected CHO-K1 cells (human, UniProt Q15116 25-288); test: cell-based blocking assay, flow cytometry: binding of FITC labeled human PD-L1-Fc to human PD-1 transfected CHO-K1 cells is blocked
T1 construct: also called Human PD-1 transfected CHO-K1 cells
T1 sequence (Q15116 25-288 limits assumed): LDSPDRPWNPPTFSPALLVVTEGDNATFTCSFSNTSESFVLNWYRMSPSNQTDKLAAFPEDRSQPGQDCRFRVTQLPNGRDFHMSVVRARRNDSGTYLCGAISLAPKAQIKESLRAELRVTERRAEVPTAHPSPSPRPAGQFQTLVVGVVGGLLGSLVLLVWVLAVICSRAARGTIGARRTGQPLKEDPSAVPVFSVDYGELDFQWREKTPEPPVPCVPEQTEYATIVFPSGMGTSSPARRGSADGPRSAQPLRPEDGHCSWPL

His tagged human PD-1 [2] = biological target: T2, His tagged human PD-1 (human, UniProt Q15116 25-170); test: bio-layer interferometry, PD-1-His (R&D); column head prints KD (nM) but the cell carries E-09, and Kd/Ka of the same row gives this number in M
T2 construct: also called His tagged human PD-I; PD-1 protein
T2 sequence (Q15116 25-170 limits assumed): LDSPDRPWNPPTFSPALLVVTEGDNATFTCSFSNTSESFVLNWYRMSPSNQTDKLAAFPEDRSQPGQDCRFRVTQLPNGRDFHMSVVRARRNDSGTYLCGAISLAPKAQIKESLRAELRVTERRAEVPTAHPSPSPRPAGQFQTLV

[3] = biological target: T3, recombinant human VEGF 165 (human, UniProt P15692-4 27-191); test: bio-layer interferometry, rhVEGF165
T3 construct: Bought protein
T3 sequence (P15692 other isoform, or with tags, fused parts or gaps limits assumed): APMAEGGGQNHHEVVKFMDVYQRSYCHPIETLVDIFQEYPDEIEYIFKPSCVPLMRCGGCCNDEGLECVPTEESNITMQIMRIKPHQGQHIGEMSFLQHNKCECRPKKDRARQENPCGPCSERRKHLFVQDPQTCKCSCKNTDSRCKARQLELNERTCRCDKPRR

His tagged human PD-1 [4] = biological target: T2, His tagged human PD-1; test: bio-layer interferometry, PD-1-His (R&D)
[5] = biological target: T3, recombinant human VEGF 165; test: cell-based or functional assay
[6] = biological target: T3, recombinant human VEGF 165; test: cell-based or functional assay; remark: listed apart in the source
[7] = biological target: T4, His tagged human Angiopoietin-2 (human, UniProt O15123 19-496, limits assumed); test: bio-layer interferometry, rhAng2-His
T4 construct: Antigen of the bio-layer interferometry experiments; also called Ang-2; Ang2
T4 sequence (looked up): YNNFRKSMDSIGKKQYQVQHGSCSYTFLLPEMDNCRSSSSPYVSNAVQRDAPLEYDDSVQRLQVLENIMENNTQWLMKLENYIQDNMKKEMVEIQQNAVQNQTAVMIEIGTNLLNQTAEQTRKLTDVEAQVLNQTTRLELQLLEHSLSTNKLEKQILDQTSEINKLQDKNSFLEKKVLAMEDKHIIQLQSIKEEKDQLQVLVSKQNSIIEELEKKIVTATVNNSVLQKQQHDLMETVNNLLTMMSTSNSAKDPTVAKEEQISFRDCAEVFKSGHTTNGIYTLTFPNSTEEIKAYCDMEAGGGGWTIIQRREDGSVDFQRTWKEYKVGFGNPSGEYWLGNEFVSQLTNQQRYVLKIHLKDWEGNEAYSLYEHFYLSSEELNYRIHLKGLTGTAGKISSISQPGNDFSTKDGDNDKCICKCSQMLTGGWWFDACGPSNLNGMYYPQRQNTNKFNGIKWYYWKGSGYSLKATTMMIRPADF

recombinant human Ang2 = biological target: T5, recombinant human Ang2 (human, UniProt O15123 19-496); test: blocking ELISA: Ang2 coated on the plate, binding of recombinant human Tie2 is blocked
T5 construct: also called Ang2 (R&D)
T5 sequence (looked up): T4 sequence (looked up)

- IC50 [1]: 0.37 nM
B1: 2P17 (antibody, V domains shown)
VH: QVQLVQSGAEVKKPGASVKVSCKASGYTFTSYYIHWVRQAPGQGLEWMGWIFPGSGNSKYNENFKGRVTLTADTSTSTVYMELSSLRSEDTAVYYCASETYDYGDYWGQGTLVTVSS
VL: DIQMTQSPSFLSASVGDRVTITCKASQNVGTNVAWYQQKPGKAPKALIYSASYRYSGVPSRFSGSGSGTEFTLTISSLQPEDFATYYCQQYYSYPYTFGQGTKLEIK
notes: also called PD-06; parental antibody 2P17

- Kd (His tagged human PD-1 [2]): 4.76 nM
- IC50 [1]: 0.43 nM
- Kd [3]: 0.0063 nM
- koff [3]: 4.31e-06 s⁻¹
- kon [3]: 683000 M⁻¹ s⁻¹
- koff (His tagged human PD-1 [4]): 0.00159 s⁻¹
- kon (His tagged human PD-1 [4]): 335000 M⁻¹ s⁻¹
B2: TS-ZPT-3S(2P16) (other)
chain 1: QVQLVQSGAEVKKPGASVKVSCKASGYTFTTYYIYWVRQAPGQGLEWMGGINPGNGGTNFNEKFKIRVTMTRDTSISTAYMELSSLRSEDTAVYYCARRYHGYDGGLDYWGQGTLVTVSSASTKGPSVFPLAPCSRSTSESTAALGCLVKDYFPEPVTVSWNSGALTSGVHTFPAVLQSSGLYSLSSVVTVPSSSLGTKTYTCNVDHKPSNTKVDKRVESKYGPPCPPCPAPEFLGGPSVFLFPPKPKDTLMISRTPEVTCVVVDVSQEDPEVQFNWYVDGVEVHNAKTKPREEQFNSTYRVVSVLTVLHQDWLNGKEYKCKVSNKGLPSSIEKTISKAKGQPREPQVYTLPPSQEEMGGQEECEWDPWTCEHMGGTKNQVSLTCLVKGFYPSDIAVEWESNGQPENNYKTTPPVLDSDGSFFLYSRLTVDKSRWQEGNVFSCSVMHEALHNHYTQKSLSLSLGKGGGGSGGGGSGGGGSSDTGRPFVEMYSEIPEIIHMTEGRELVIPCRVTSPNITVTLKKFPLDTLIPDGKRIIWDSRKGFIISNATYKEIGLLTCEATVNGHLYKTNYLTHRQTNTIIDVVLSPSHGIELSVGEKLVLNCTARTELNVGIDFNWEYPSSKHQHKKLVNRDLKTQSGSEMKKFLSTLTIDGVTRSDQGLYTCAASSGLMTKKNSTFVRVHEK
chain 2: DIVLTQSPASLAVSPGQRATITCRASKSVSTSGFSYIHWYQQKPGQPPKLLIYLASNLESGVPARFSGSGSGTDFTLTINPVEANDTANYYCQHTWELPNTFGGGTKVEIKRTVAAPSVFIFPPSDEQLKSGTASVVCLLNNFYPREAKVQWKVDNALQSGNSQESVTEQDSKDSTYSLSSTLTLSKADYEKHKVYACEVTHQGLSSPVTKSFNRGEC

- IC50 (VEGF-induced luciferase signal, cell based VEGF neutralization assay on VEGFR-2 reporter cells) [5]: 0.14 nM
- IC50 (read off the curve) [6]: ~0.1 nM
B3: Bi-ZP-2 (bispecific antibody, human IgG1, kappa, N297A)
heavy: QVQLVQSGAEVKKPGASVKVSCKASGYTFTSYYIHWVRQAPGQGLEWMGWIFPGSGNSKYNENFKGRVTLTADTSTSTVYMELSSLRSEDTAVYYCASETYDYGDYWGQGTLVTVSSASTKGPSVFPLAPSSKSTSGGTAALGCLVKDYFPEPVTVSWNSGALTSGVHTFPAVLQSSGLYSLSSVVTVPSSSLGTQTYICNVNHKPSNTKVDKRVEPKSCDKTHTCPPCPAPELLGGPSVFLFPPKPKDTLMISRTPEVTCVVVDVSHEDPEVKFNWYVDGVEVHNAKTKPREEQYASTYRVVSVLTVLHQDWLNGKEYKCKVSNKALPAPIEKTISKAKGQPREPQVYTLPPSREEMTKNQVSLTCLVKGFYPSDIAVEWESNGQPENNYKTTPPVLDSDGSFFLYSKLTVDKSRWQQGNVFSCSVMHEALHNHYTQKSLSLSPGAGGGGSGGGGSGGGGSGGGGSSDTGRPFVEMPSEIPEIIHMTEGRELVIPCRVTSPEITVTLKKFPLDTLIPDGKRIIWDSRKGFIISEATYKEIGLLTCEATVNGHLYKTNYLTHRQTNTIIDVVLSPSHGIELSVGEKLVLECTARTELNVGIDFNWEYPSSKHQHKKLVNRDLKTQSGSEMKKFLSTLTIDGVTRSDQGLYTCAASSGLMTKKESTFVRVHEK
light: DIQMTQSPSFLSASVGDRVTITCKASQNVGTNVAWYQQKPGKAPKALIYSASYRYSGVPSRFSGSGSGTEFTLTISSLQPEDFATYYCQQYYSYPYTFGQGTKLEIKRTVAAPSVFIFPPSDEQLKSGTASVVCLLNNFYPREAKVQWKVDNALQSGNSQESVTEQDSKDSTYSLSSTLTLSKADYEKHKVYACEVTHQGLSSPVTKSFNRGEC

- Kd (His tagged human PD-1 [2]): 3.84 nM
- Kd [7]: 0.7 nM
- koff [7]: 9.05e-05 s⁻¹
- kon [7]: 130000 M⁻¹ s⁻¹
- IC50 [1]: 0.65 nM
- Kd [3]: 0.0049 nM
- koff [3]: 5e-06 s⁻¹
- kon [3]: 1.02e+06 M⁻¹ s⁻¹
- IC50 (recombinant human Ang2): 0.6 nM
- koff (His tagged human PD-1 [4]): 0.00147 s⁻¹
- kon (His tagged human PD-1 [4]): 382000 M⁻¹ s⁻¹
B4: TS-ZPT-3L(2P17) (other)
heavy: QVQLVQSGAEVKKPGASVKVSCKASGYTFTSYYIHWVRQAPGQGLEWMGWIFPGSGNSKYNENFKGRVTLTADTSTSTVYMELSSLRSEDTAVYYCASETYDYGDYWGQGTLVTVSSASTKGPSVFPLAPCSRSTSESTAALGCLVKDYFPEPVTVSWNSGALTSGVHTFPAVLQSSGLYSLSSVVTVPSSSLGTKTYTCNVDHKPSNTKVDKRVESKYGPPCPPCPAPEFLGGPSVFLFPPKPKDTLMISRTPEVTCVVVDVSQEDPEVQFNWYVDGVEVHNAKTKPREEQFNSTYRVVSVLTVLHQDWLNGKEYKCKVSNKGLPSSIEKTISKAKGQPREPQVYTLPPSQEEMGGAQQEECEWDPWTCEHMGSGSATGGSGSTASSGSGSATHQEECEWDPWTCEHMGGTKNQVSLTCLVKGFYPSDIAVEWESNGQPENNYKTTPPVLDSDGSFFLYSRLTVDKSRWQEGNVFSCSVMHEALHNHYTQKSLSLSLGKGGGGSGGGGSGGGGSSDTGRPFVEMYSEIPEIIHMTEGRELVIPCRVTSPNITVTLKKFPLDTLIPDGKRIIWDSRKGFIISNATYKEIGLLTCEATVNGHLYKTNYLTHRQTNTIIDVVLSPSHGIELSVGEKLVLNCTARTELNVGIDFNWEYPSSKHQHKKLVNRDLKTQSGSEMKKFLSTLTIDGVTRSDQGLYTCAASSGLMTKKNSTFVRVHEK
light: B3 light

- Kd (His tagged human PD-1 [2]): 3.71 nM
- Kd [7]: 0.65 nM
- koff [7]: 8.66e-05 s⁻¹
- kon [7]: 134000 M⁻¹ s⁻¹
- IC50 [1]: 0.37 nM
- Kd [3]: 0.0052 nM
- koff [3]: 5.03e-06 s⁻¹
- kon [3]: 974000 M⁻¹ s⁻¹
- IC50 (recombinant human Ang2): 9.34 nM
- koff (His tagged human PD-1 [4]): 0.00146 s⁻¹
- kon (His tagged human PD-1 [4]): 394000 M⁻¹ s⁻¹
B5: TS-ZPT-3S(2P17) (other)
heavy: QVQLVQSGAEVKKPGASVKVSCKASGYTFTSYYIHWVRQAPGQGLEWMGWIFPGSGNSKYNENFKGRVTLTADTSTSTVYMELSSLRSEDTAVYYCASETYDYGDYWGQGTLVTVSSASTKGPSVFPLAPCSRSTSESTAALGCLVKDYFPEPVTVSWNSGALTSGVHTFPAVLQSSGLYSLSSVVTVPSSSLGTKTYTCNVDHKPSNTKVDKRVESKYGPPCPPCPAPEFLGGPSVFLFPPKPKDTLMISRTPEVTCVVVDVSQEDPEVQFNWYVDGVEVHNAKTKPREEQFNSTYRVVSVLTVLHQDWLNGKEYKCKVSNKGLPSSIEKTISKAKGQPREPQVYTLPPSQEEMGGQEECEWDPWTCEHMGGTKNQVSLTCLVKGFYPSDIAVEWESNGQPENNYKTTPPVLDSDGSFFLYSRLTVDKSRWQEGNVFSCSVMHEALHNHYTQKSLSLSLGKGGGGSGGGGSGGGGSSDTGRPFVEMYSEIPEIIHMTEGRELVIPCRVTSPNITVTLKKFPLDTLIPDGKRIIWDSRKGFIISNATYKEIGLLTCEATVNGHLYKTNYLTHRQTNTIIDVVLSPSHGIELSVGEKLVLNCTARTELNVGIDFNWEYPSSKHQHKKLVNRDLKTQSGSEMKKFLSTLTIDGVTRSDQGLYTCAASSGLMTKKNSTFVRVHEK
light: B3 light
notes: Trispecific antagonist: 2P17 variable domains, single copy of the trebananib peptide within CH3, aflibercept domain at the carboxy terminus by a 3xG4S linker
